Like-named read-outs stand apart in the source and are kept apart here.
Key:
[1] = biological target: T1, brHis2 (UniProt P03069, L230H;R234H); experiment: fluorescence anisotropy
T1 chain: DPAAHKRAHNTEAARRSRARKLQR

[2] = biological target: T2, br2(SS) (UniProt P03069 226-248+=GGC, internal_change); experiment: EMSA
T2 chain: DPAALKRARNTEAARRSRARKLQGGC

[3] = biological target: T1, brHis2; experiment: EMSA
[4] = biological target: T1, brHis2; experiment: EMSA
[5] = biological target: T3, brHis (UniProt P03069, R234H); experiment: EMSA
T3 chain: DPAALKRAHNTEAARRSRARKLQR

[6] = biological target: T4, br (UniProt P03069); experiment: EMSA
T4 chain: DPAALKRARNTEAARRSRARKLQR

B1: TMR-GTCAT (dsDNA)
DNA 1: CGCGTCATAATTGAGAGCGC
DNA 2: GCGCTCTCAATTATGACGCG
B1 showed a Kd [1] of about 0.024 µM.

B2: AP-1 (dsDNA)
DNA 1: TGGAGATGACGTCATCTCGT
DNA 2: ACGAGATGACGTCATCTCCA
B2: binds [2]; binds [3].

B3: MUT (dsDNA)
DNA 1: CGCGTGATAATTGAGAGCGC
DNA 2: GCGCTCTCAATTATCACGCG
B3: no binding [4].

B4: GTCAT (dsDNA)
DNA 1: CGCGTCATAATTGAGAGCGC
DNA 2: GCGCTCTCAATTATGACGCG
B4: no binding [5]; no binding [6].

Reference: publication PMC5741177
